Here are results for two molecules from patent US20130217572A1, “SPECIFIC DELIVERY OF AGROCHEMICALS” (VRIJE UNIVERSITEIT BRUSSEL, priority 2010, published 2013).

Data set [1] concerns the target T1, potato lectin (Sigma) (potato, UniProt Q9S8M0 23-323).
T1 construct: Bought glycoprotein, coated on ELISA plates
T1 sequence (looked up): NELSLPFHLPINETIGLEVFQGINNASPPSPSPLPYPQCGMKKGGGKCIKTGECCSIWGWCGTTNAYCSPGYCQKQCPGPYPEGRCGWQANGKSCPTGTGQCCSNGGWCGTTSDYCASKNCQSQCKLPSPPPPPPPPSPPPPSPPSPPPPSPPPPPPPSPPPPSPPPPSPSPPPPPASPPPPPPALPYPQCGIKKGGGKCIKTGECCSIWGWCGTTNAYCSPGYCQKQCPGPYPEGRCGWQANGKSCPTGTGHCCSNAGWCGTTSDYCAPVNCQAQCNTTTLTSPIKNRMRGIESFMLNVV
As to the kind of experiment: microcapsule retention; H: amine capsules, BS3 one-step, 0.1 ug VHH/cm2; potato lectin coat 1 ug/ml; 100% coverage.

In data set [2] the target is T1, potato lectin (Sigma). As to the kind of experiment: microcapsule retention; L: amine capsules, BS3 two-step, 0.1 ug VHH/cm2; potato lectin coat 100 ug/ml; 10% coverage.
Data set [3] deals with T1, potato lectin (Sigma). The experiment in a line: microcapsule retention; G: amine capsules, BS3 one-step, 1 ug VHH/cm2; potato lectin coat 100 ug/ml; 10% coverage.
For data set [4], the target named is T1, potato lectin (Sigma). As to the kind of experiment: microcapsule retention; G: amine capsules, BS3 one-step, 1 ug VHH/cm2; potato lectin coat 10 ug/ml; 10% coverage.
The target in data set [5] is T1, potato lectin (Sigma). As to the kind of experiment: microcapsule retention; K: amine capsules, BS3 two-step, 1 ug VHH/cm2; potato lectin coat 10 ug/ml; 100% coverage.
For data set [6], the target named is T1, potato lectin (Sigma). The experiment in a line: microcapsule retention; D: carboxyl capsules, EDC/Sulfo-NHS, 0.1 ug VHH/cm2; potato lectin coat 1 ug/ml; 10% coverage.
The target of data set [7] is T1, potato lectin (Sigma). The experiment in a line: microcapsule retention; H: amine capsules, BS3 one-step, 0.1 ug VHH/cm2; potato lectin coat 1 ug/ml; 10% coverage.
Data set [8] concerns the target T1, potato lectin (Sigma). As to the kind of experiment: microcapsule retention; C: carboxyl capsules, EDC/Sulfo-NHS, 1 ug VHH/cm2; potato lectin coat 10 ug/ml; 10% coverage.
The target of data set [9] is unrelated antigens. As to the kind of experiment: VHH-coupled lambda-cyhalothrin microcapsules retained on wells coated with unrelated antigen; 100% surface coverage.
For data set [10], the target named is unrelated antigens. The experiment in a line: VHH-coupled Uvitex microcapsules retained on wells coated with unrelated antigen; 4% surface coverage.
Data set [11] concerns the target unrelated antigens. As to the kind of experiment: VHH-coupled Uvitex OB microcapsules retained on wells coated with unrelated antigen; 100% surface coverage.
The subject of data set [12] is gum arabic or potato lectin. As to the kind of experiment: Lambda cyhalothrin amounts in wells with bound microcapsules (GC/MS-MS). Type of data set: binding. Conditions: VHH coupled to lambda cyhalothrin microcapsules. As for the experimental part: In another experiment lambda cyhalothrin amounts were also determined analytically. 100 μl/well aceton was added to washed wells with bound microcapsules and transferred to glass vials with 10 ml of hexane containing 0.05% triphenylphosphate as internal standard. The amount of lambda cyhalothrin was determined by GC/MS-MS analysis in comparison with calibration solutions. Controls for lambda cyhalothrin microcapsules included blank microcapsules to which no VHH were coupled and microcapsules to which unrelated VHH were coupled. Controls also included wells to which no gum arabic or potato lectin was coated.

Data set [13] has as its target unrelated antigens. As to the kind of experiment: VHH-coupled Uvitex microcapsules retained on wells coated with unrelated antigen; 100% surface coverage.
The subject of data set [14] is potato leaf discs. As to the kind of experiment: VHH binding at different temperatures. Also on record: species or system potato (variety Désirée). As to conditions: 5 μg/ml in PBS; temperature range from 4° C. to 55° C. As for the experimental part: In order to test applicability of VHH as binders for greenhouse or field applications where binding supposedly may occur at different and sometimes even extreme temperatures, a leaf dip VHH binding experiment at different temperatures was used. Temperatures used were 4° C., room temperature, 37° C., 55° C., or 70° C. ø 8 mm potato leaf discs (variety Désirée) were cut using a puncher tool. The leaf discs were equilibrated to different temperatures by washing three times with PBS at different temperatures. Hexahistidine-tagged VHH were diluted to 5 μg/ml in PBS at different temperatures, added to the corresponding equilibrated leaf discs, and binding of VHH was allowed for 1 hour at different temperatures. After incubation with VHH, leaf discs were washed five times with PBS at room temperature. Bound VHH were detected by incubation with monoclonal mouse anti-histidine antibodies directly conjugated with Alexa-488 fluorescent dye (Abd Serotec) in PBS for 1 hour at room temperature. Unbound anti-histidine antibodies were removed by washing five times with PBS at room temperature. Leaf discs were analyzed for bound VHH with microscopy. […] Please note that leaf discs severely suffer when submerged in PBS at 70° C. for 1 hour but that binding of VHH was still detected.

Data set [15] relates to grass leaf surface. The experiment in a line: VHH binding to leaf discs (microscopy). As to conditions: 5 μg/ml in PBS, anti-histidine Alexa-488 detection. As for the experimental part:
(§1) VHH binding to non-fixed leaf discs of potato (variety Désirée), black nightshade, grass, wheat or azalea was investigated. For comparison, binding of CBM3a to non-fixed leaf discs of potato (variety Désirée) was analyzed in parallel. Leaf discs were prepared by punching a fresh potato leaf with a 5 mm belt hole puncher tool. Leaf discs were put immediately in wells of a 96-well plate containing 200 μl per well 5% MPBS or PBS, and incubated for 30 minutes. Leaf discs were transferred to solutions containing 5 μg/ml VHH antibody fragment, respectively 5 μg/ml CBM3a in 2% MPBS or PBS and incubated for 60-90 minutes. Unbound VHH or CBM3a proteins were removed by washing three times with 2% MPBS or PBS. Bound VHH or CBM3a proteins were detected with incubation with monoclonal mouse anti-histidine antibodies directly conjugated with Alexa-488 fluorescent dye (Abd Serotec) in 1% MPBS for 1 hour. Unbound antibodies were removed by washing three times with PBS. Leaf discs were put on glass slides, covered with cover slips, and analyzed by microscopy or on a macrozoom microscope system (Nikon) or a SP5 confocal microscope system (Leica).

For data set [16], the system named is black nightshade leaf surface. As to the kind of experiment: VHH binding to leaf discs (microscopy). Conditions: 5 μg/ml in PBS, anti-histidine Alexa-488 detection. As for the experimental part:
as §1

In data set [17] the test system is potato leaf surface. The experiment in a line: VHH binding to leaf discs (microscopy). Also on record: species or system potato (variety Désirée). Conditions: 5 μg/ml in PBS, anti-histidine Alexa-488 detection. As for the experimental part:
as §1

Take Control VHH: the microcapsule counts (microcapsules) amounted to 173 in [1]; 248 in data set [2]; 36 in [3]; 13 in data set [4]; 903 in [5]; 64 in [6]. In addition, the microcapsule counts (microcapsules) in data set [7] was determined as 36; in data set [8], 50.

B1: VHH 3E6 (VHH)
VHH: QVQLQESGGGLVQPGGTLSLSCAASGFNVRWYGMGWFRQAPGKEREGVACISALQETTAYADSVKGRFTLSRDNPKNTLSLQMNNLQPEDTGVYYCATTDCDDSSRMTYTSYLGQGTQVTVSS
notes: also called Monovalent VHH 3E6
The molecule B1 displayed a counts of bound microcapsules (microcapsules) in data set [9] of 861. In addition, the figures for the surface area of bound microcapsules in [10] and in data set [13] were 5.01 and 69.5, respectively. In addition, the area of bound microcapsules in data set [11] was 84.5. Moreover, the “increase of amounts of lambda cyhalothrin in wells coated with antigen” value worked out at 23 fold in [12] (compared to blank microcapsules) and 27 fold in [12] (over blank wells not coated with antigen). Moreover, the “binding to leaf discs at different temperatures” value in data set [14] was “showed detectable binding”. The “binding to native grass leaf surface” value was “binding to leaf surface and wounded plant tissue” in data set [15]; “bind specifically” in [15] (listed as 3E6). Further, the “binding to native black nightshade leaf surface” value in [16] is “binding leaf surface, glandular trichomes, and leaf hairs”; in [16] (listed as 3E6), “bind specifically”. Besides, the “binding to native potato leaf surface” value in [17] was “binding leaf surface, stomata, glandular trichomes, and leaf hairs”; in [17] (listed as 3E6) it was “clearly binding to trichomes, stomata and cuticle”.
